The values that follow come from patent publication US20100260763A1 (DOMANTIS, published 2010).

Assay [1] addresses T1, human TNFR1, soluble recombinant protein (human, UniProt P19438 22-211, limits assumed, biotinylated in the BIAcore assays (coupling via primary amines)).
T1 construct: also called biotinylated TNFR1; human recombinant E. coli-expressed human TNFR1
T1 sequence (looked up): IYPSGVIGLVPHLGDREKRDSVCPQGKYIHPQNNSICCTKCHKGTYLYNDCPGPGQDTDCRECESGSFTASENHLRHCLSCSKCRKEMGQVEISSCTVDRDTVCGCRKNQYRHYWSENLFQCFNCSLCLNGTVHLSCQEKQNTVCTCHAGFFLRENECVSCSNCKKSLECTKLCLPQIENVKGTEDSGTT
The assay can be described thus: phage ELISA, plate coated with 1 nM TNFR1, anti-M13-HRP; trypsin 0 µg/ml; phage input 4.51E+10. In general terms: In an ELISA, binding on a coated surface is turned into a signal by an enzyme label.

The target of assay [2] is T1, human TNFR1, soluble recombinant protein. The assay can be described thus: phage ELISA, plate coated with 1 nM TNFR1, anti-M13-HRP; trypsin 10 µg/ml 1 h room temp; phage input 2.82E+09.
Assay [3] shares this target. The assay can be described thus: phage ELISA, plate coated with 1 nM TNFR1, anti-M13-HRP; trypsin 0 µg/ml; phage input 2.82E+09.
The target is the same in assay [4]. The assay can be described thus: phage ELISA, plate coated with 1 nM TNFR1, anti-M13-HRP; trypsin 1 mg/ml 1 h room temp; phage input 4.51E+10.
Assay [5] shares this target. Nature of the assay: phage ELISA, plate coated with 1 nM TNFR1, anti-M13-HRP; trypsin 1 mg/ml 1 h room temp; phage input 3.52E+08.
For assay [6] the target is unchanged. Nature of the assay: phage ELISA, plate coated with 1 nM TNFR1, anti-M13-HRP; trypsin 0 µg/ml; phage input 7.05E+08.
Assay [7] has the same target. The assay can be described thus: phage ELISA, plate coated with 1 nM TNFR1, anti-M13-HRP; trypsin 1 mg/ml 1 h room temp; phage input 2.26E+10.
Assay [8] shares this target. The assay can be described thus: phage ELISA, plate coated with 1 nM TNFR1, anti-M13-HRP; trypsin 100 µg/ml 1 h room temp; phage input 7.05E+08.
Assay [9] shares this target. The assay can be described thus: phage ELISA, plate coated with 1 nM TNFR1, anti-M13-HRP; trypsin 10 µg/ml 1 h room temp; phage input 3.52E+08.
The target is the same in assay [10]. Nature of the assay: phage ELISA, plate coated with 1 nM TNFR1, anti-M13-HRP; trypsin 0 µg/ml; phage input 2.26E+10.
For assay [11] the target is unchanged. Nature of the assay: phage ELISA, plate coated with 1 nM TNFR1, anti-M13-HRP; trypsin 0 µg/ml; phage input 1.41E+09.
The target is the same in assay [12]. Nature of the assay: phage ELISA, plate coated with 1 nM TNFR1, anti-M13-HRP; trypsin 100 µg/ml 1 h room temp; phage input 3.52E+08.

As to DOM1h-131 displayed on phage, the phage ELISA read-out came out at 0.916 in [1]; 0.573 in [2]; 0.946 in [3]; 0.284 in assay [4]; 0.08 in assay [5]; 0.705 in assay [6]. The phage ELISA read-out worked out at 0.229 in assay [7]; 0.084 in assay [8]; 0.213 in assay [9]; 0.944 in [10]; 0.85 in assay [11]; 0.084 in assay [12].
